Test results: patent WO2021228904A1 (dated 2021)

Target: SARS-CoV-2 receptor binding domain (RBD), amino acids 319-541, octahistidine tag (SARS-CoV-2, UniProt P0DTC2 319-541)
Experiment: not named there; ELISA in Example 4

B1: 002_P2C4 (antibody, V domains shown)
VH: QVQLVESGAEVKKPGSSVKVSCKASGGTFSSYGINWVRQAPGQGLEWMGGIIPIFGTANYAQKFQGRVTITTDESTSTAYMELSSLRSEDTAVYYCASFGDDSGDEGVRWGQGTLVTVSS
VL: EIVMTQSPATLSLSPGERATLSCRASQSVSSYLAWYQQKPGQAPRLLIYDASNRATGIPARFSGSGSGTDFTLTISSLEPEDFAVYYCQQRSNWPPYTFGQGTKVEIK
- binding result: binds

B2: SEQ ID NOs: 661/665 (HCVR/LCVR) (antibody, V domains shown)
VH: EVQLVESRAEMKKPGESLKISCKGSGYTFTNHWIAWVRQMPGKGLEWMGIIYPGDSDTRYSPSFEGQVTISADKSISTAYLQWSSLKASDTAMYYCARRGYTYGADFYGLDVWGQGTRVTVSS
VL: not shown
- binding result: binds

B3: SEQ ID NOs: 557/561 (HCVR/LCVR) (antibody, V domains shown)
VH: EVQLVESGGGVVQPGRSLRLSCAASGFTFSSYAMHWVRQAPGKGLEWVAVISYDGSYKYYADSVKGRFTISRDNSKNTLYLQMNSLTAEDTAVYYCAREGSRQWLVIYFDYWGQGTLVTVSS
VL: AIRMTQSPSSLSASVGDRVTITCRASQSISSYLNWYQQKPGKAPKLLIYAASSLQSGVPSRFSGSGSGTDFTLTISSLQPEDFATYYCQQSYTTFIYTFGQGTKLEIK
- binding result: binds

B4: SEQ ID NOs: 217/221 (HCVR/LCVR) (antibody, V domains shown)
VH: EVQLVESGGGLVQPGGSLRLSCAASGFTFSSYDMHWVRQTTGKGLQWVSAIGTAGDTYYPGSVKGRFTISRENAKNSLYLQMNSLRAGDTAVYYCARGGDRYPVGYFDLWGRGTLVTVSS
VL: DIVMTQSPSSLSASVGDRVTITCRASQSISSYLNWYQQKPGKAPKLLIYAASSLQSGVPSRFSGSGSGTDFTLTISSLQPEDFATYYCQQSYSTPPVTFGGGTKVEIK
- binding result: binds

B5: 001_P1G11 (antibody, V domains shown)
VH: EVQLVQSGTEVKKPGASVKVSCKASGYTFPGYYIHWVRQAPGQGLEWMGWINPNSGVAKSAQKFQGRVTMTRDSSISTVYLDVTSDDTAVYYCARDLVWATVSGTMDVWGQGTTVTVSS
VL: QSALTQPPSASGSPGQSVTISCTGTSSDIGTYNYVSWYQQHPGKAPKLMIYEVTKRPSGVPDRFSGSKSGNTASLTVSGLQADDEGDYYCSSYVGNNNWVFGGGTKLTVL
- binding result: binds

B6: SEQ ID NOs: 493/497 (HCVR/LCVR) (antibody, V domains shown)
VH: EVQLVQSGAEVKKPGESLKISCKGSGYSFTSYWIDWVRQMPGKGLEWMGIFYPGDSDTRYSPSFQGQVTISADKSISTAYLQWSSLKASDTAMYYCARHNPDYYDSSGPLDYWGQGTLVTVSS
VL: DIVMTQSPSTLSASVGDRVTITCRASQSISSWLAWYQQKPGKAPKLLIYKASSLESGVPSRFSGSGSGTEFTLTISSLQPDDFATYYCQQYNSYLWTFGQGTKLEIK
- binding result: binds

B7: SEQ ID NOs: 461/465 (HCVR/LCVR) (antibody, V domains shown)
VH: EVQLVESGAEVKKPGSSVKVSCKASGGTFSSYAISWVRQAPGQGLEWMGGIIPIFGTANYAQKFQGRATITTDESTSTAYMELSSLGSEDTAVYYCARTHSYDNSGQYFDYWGQGTMVTVSS
VL: DIVMTQSPATLSLSPGERATLSCRASQSVSSFLAWYQQKPGQAPRLLIYDASNRATGIPARFSGSGSGTDFTLTISSLEPEDFAVYYCQQRSNWPPRLTFGGGTKVDIK
- binding result: binds

B8: SEQ ID NOs: 621/625 (HCVR/LCVR) (antibody, V domains shown)
VH: QVQLVQSGAEVKKPGASVKVSCKVSGYTLTELSMHWVRQAPGKGLEWMGGFDPEDGETIYAQKFQGRVTMTEDTSTDTAYMELSSLRSEDTAVYYCATAYSVDTAMVRGVGYWGQGTLVTVSS
VL: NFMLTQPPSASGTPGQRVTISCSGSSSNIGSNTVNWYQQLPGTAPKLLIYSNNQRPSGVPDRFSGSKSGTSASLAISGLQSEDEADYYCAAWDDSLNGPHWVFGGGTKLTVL
- binding result: binds

B9: SEQ ID NOs: 57/61 (HCVR/LCVR) (antibody, V domains shown)
VH: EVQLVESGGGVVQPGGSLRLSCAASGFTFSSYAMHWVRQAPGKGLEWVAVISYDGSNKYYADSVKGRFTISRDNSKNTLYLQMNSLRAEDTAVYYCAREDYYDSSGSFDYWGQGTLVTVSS
VL: QSVLTQPASVSGSPGQSITISCTGTSSDVGGYNYVSWYQQHPGKAPKLMIYDVSNRPSGVSNRFSGSKSGNTASLTISGLQAEDEADYYCSSYTSSSTRHWVFGGGTKLTVL
- binding result: binds

B10: SEQ ID NOs: 421/425 (HCVR/LCVR) (antibody, V domains shown)
VH: EVQLVQSGAEVKKPGASVKVSCKASGYTFTSYDINWVRQATGQGLEWMGWMNPNSGNTGYAQKFQGRVTMTRNTSISTAYMELSSLRSEDTAVYYCARVVGSSWYPVDAFDIWGQGTRVTVSS
VL: QSVLTQPASVSGSPGQSITISCTGTSSDVGGYNYVSWYQQHPGKAPKLMIYDVSNRPSGVSNRFSGSKSGNTASLTISGLQAEDEADYYCSSYTSSSTLVVFGGGTKLTVL
- binding result: binds

B11: SEQ ID NOs: 653/657 (HCVR/LCVR) (antibody, V domains shown)
VH: EVQLVESGGGLVQPGRSLRLSCAASGFTFDDYAMHWVRQAPGKGLEWVSGISWNSGSIGYADSVKGRFTISRDNAKNSLYLQMNSLRAEDTALYYCAKMGPDPAHDYGRKNDAFDIWGQGTMVTVSS
VL: DIVMTQSPSSLSASVGDRVTITCRASQSMSSYLNWYQQKPGKAPKLLIYAASSLQSGVPSRFSGSGSGTDFTLTISSLQPEDFATYYCQQSYSTLTFGGGTKLEIK
- binding result: binds

B12: SEQ ID NOs: 73/77 (HCVR/LCVR) (antibody, V domains shown)
VH: EVQLVESGGGLVQPGGSLRLSCAASGFTVTSTYMTWVRRAPGKGLEWVSIIYNDDTTYYADSVKDRVTVSRDDSKNTLYLQMNSLRAEDTAIYYCARGGYYYDPSGYYSRSFSFDYWGQGTLVTVSS
VL: NFMLTQPASVSGSPGQSITISCTGSSSDIAPYTFVSWYQQHSGTAPKLIIYDVRNRPSGISDRFSGSRSGNTASLSISGLQAEDEADYYCSAYTTTSTSWVFGGGTKLTVL
- binding result: binds
